Laboratory results reported in patent US20020107196A1.

Target: human CXCR4 receptor (human)
Test: cell-based or functional assay

Chain of stromal cell derived factor-1α (SDF-1α) (ligand) (chain): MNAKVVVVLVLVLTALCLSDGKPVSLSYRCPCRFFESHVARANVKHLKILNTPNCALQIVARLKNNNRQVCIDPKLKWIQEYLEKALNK

stromal cell derived factor-1α (SDF-1α) (ligand)
EC50 of HUVEC migration (Transwell chemotaxis): 10 to 20 nM | elevation of [Ca+2]i in HUVEC (fura-2 fluorescence); concentration of maximal response: 100 nM | percent migration of input EC (Transwell chemotaxis): 40%
